# Laboratory results published in paper PMC4526890, “Crystal structures of Mycobacterium tuberculosis GlgE and complexes with non-covalent inhibitors” (Scientific Reports, 2015).
# T1: Mycobacterium tuberculosis GlgE (Mycobacterium tuberculosis), P9WQ17
# T1 chain: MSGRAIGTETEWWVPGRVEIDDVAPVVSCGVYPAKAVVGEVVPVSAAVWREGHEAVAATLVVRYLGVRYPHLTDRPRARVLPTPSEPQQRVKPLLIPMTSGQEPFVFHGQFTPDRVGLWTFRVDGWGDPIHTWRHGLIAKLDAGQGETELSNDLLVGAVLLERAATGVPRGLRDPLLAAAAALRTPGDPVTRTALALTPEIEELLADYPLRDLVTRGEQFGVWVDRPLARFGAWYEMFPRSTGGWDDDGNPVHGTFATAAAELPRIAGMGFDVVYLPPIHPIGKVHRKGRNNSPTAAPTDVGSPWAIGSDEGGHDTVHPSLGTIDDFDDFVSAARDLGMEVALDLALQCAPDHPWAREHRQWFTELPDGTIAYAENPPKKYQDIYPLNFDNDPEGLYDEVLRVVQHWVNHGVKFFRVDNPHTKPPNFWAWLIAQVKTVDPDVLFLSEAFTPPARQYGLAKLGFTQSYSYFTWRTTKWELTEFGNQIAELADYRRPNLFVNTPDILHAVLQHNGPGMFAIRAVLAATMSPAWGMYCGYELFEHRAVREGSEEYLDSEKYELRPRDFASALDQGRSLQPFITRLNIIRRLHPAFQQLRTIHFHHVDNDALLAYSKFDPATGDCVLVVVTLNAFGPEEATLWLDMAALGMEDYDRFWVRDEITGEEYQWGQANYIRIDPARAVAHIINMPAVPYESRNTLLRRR
# B1: Mycobacterium tuberculosis GlgE, P9WQ17 1-701 (enzyme)
# chain: T1 chain
# Target: T1, Mycobacterium tuberculosis GlgE …
# Experiment: crystal structure; Mtb GlgE co-crystallised with 10 mM maltose (hanging drop, 0.1 M HEPES pH 7.5, 1.0 M ammonium formate), 3.3 Å; the same crystals soaked with 10 mM maltohexaose, 4.0 Å; homodimer seen in the crystal
# Conditions: remark: other sources report otherwise
binder,measurement,value
B1,stoichiometry N,2
